Data as given in patent US10442850.

Key:
[1] = biological target: A1/A3-C1-C2 part of thrombin-activated human FVIII-BDD R1645H (human) (UniProt P00451); assay: cell-based or functional assay
[2] = biological target: A1/A3-C1-C2 part of thrombin-activated cFVIII-BDD (canine) (UniProt O18806); assay: cell-based or functional assay
Sequence of UniProt O18806 (O18806 20-385, chain 1 of 2): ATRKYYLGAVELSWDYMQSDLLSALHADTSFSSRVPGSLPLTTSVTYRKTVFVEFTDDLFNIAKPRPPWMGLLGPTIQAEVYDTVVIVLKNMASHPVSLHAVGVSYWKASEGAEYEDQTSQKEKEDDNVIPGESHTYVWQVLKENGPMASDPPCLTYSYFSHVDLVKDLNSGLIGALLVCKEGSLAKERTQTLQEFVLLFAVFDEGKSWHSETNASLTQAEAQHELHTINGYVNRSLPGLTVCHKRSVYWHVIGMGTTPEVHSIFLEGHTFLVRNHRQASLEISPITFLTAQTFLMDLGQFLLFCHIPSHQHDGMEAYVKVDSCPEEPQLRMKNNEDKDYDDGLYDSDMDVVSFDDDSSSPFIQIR
Sequence of UniProt O18806 (O18806 1701-2343, chain 2 of 2): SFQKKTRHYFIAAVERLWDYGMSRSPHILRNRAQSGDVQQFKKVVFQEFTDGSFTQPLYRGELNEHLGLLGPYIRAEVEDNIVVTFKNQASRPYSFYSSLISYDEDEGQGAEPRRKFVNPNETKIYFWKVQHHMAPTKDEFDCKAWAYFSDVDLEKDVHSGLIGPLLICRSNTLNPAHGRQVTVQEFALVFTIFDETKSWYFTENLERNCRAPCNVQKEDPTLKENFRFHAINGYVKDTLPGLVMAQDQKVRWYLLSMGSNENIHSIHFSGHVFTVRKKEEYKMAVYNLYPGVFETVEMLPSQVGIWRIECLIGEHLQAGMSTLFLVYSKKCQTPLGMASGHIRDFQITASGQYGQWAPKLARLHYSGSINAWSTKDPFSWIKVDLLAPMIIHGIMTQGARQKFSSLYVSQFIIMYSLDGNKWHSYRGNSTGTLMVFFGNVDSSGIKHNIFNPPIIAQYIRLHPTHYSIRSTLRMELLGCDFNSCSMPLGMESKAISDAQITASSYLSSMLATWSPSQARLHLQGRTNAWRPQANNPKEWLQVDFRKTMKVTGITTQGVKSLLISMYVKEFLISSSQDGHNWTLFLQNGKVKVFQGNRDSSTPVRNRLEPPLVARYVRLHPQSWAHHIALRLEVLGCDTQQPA

Sequence of UniProt P00451 (P00451 20-391, chain 1 of 2): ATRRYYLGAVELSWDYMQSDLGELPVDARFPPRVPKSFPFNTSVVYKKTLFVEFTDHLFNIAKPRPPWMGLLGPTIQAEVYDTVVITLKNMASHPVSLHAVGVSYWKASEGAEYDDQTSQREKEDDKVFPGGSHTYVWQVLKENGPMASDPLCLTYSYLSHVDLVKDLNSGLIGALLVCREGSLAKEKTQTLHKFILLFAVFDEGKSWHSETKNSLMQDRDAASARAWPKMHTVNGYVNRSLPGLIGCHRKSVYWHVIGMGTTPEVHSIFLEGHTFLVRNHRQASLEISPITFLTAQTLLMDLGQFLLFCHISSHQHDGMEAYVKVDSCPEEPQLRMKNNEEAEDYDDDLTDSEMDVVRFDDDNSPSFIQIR
Sequence of UniProt P00451 (P00451 1709-2351, chain 2 of 2): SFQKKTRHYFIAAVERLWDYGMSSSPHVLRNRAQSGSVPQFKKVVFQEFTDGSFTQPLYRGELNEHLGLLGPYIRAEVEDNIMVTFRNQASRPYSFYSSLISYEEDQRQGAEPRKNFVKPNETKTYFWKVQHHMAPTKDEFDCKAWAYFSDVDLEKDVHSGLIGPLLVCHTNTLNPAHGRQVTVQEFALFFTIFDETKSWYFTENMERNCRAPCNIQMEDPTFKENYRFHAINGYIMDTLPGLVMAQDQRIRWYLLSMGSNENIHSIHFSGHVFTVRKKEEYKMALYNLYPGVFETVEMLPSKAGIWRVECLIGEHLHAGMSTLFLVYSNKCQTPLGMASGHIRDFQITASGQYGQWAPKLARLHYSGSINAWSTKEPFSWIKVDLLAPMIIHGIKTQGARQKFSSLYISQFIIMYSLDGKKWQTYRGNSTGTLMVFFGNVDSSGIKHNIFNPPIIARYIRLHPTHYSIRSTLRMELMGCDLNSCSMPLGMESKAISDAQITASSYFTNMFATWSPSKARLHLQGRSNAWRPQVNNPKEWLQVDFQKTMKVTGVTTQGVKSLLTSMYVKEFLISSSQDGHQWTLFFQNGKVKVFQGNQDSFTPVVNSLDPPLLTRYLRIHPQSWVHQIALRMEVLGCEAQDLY

Substance: A2 domain of thrombin-activated human FVIII-BDD R1645H (from UniProt P00451 392-759)
- half-life of activated FVIII (Xase assay, A2-domain stability) (fold (against WT hBFVIII)) [1]: 3

Substance: A2 domain of thrombin-activated cFVIII-BDD (from UniProt O18806 386-753)
- half-life of activated FVIII cofactor activity after thrombin activation (purified component Xase assay or clotting assay) (fold (against hFVIII)) [2]: 3
